The values below come from paper PMC3764193.

This data set has as its target T1, recombinant (His)6-Bwc2 (Cryptococcus neoformans var. neoformans JEC21) (UniProt Q5EGQ1).
T1 sequence: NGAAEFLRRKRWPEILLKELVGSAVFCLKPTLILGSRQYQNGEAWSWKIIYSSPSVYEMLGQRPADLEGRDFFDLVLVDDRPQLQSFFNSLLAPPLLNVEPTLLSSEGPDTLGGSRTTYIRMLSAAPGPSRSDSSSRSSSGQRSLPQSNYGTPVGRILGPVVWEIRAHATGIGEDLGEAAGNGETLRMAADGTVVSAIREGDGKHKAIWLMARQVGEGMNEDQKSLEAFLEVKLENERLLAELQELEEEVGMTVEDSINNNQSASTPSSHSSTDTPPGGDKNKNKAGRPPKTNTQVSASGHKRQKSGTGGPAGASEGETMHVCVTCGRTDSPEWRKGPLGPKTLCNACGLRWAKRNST
Put plainly: EMSA. Particulars: 1X EMSA buffer (from 5X: 20% w/v glycerol, 5 mM MgCl2, 250 mM NaCl, 2.5 mM EDTA pH 8, 10 mM DTT, +/-12 uM ZnSO4) + 1X phosphate buffer, 20 ul; 20 min …. In general terms: In EMSA bound probe runs differently from free probe, usually more slowly.

Turning to “GTAGTCACCAGTCATTCAGTTACTCTGTTATGACGTGACGTCGTTACTCTCGATCTTCATCTCGATCTCCACCTTGCAAGCTTTTCAGGCTTTTTACTCATCGTTCACTATATAATACGATACCACACTTGACATTTCTTCGGTATGTATAAAACGCAGTCGCGAGTACTTCCTTCTGCTTTTGCAACAAACACGTCTGCATTTGTTGCCAAGTATTTATATCAGCATTAAGTACATGAGGTTC (double strand) [P1 (UVE1 promoter)]”, the binding result is “binds”.
